Laboratory results: paper PMC9632566 (Nature Communications, 2022)

Molecular target: NA of A/California/04/2009 (A/H1N1pdm09) (Influenza A virus A/California/04/2009 …, strain)
Experiment: ELISA
Conditions: one partner purified

B1: DA05A30 (antibody, V domains shown)
VH: EVQLVESGAEVKKPGESLKISCQGSGYRFSSHWIVWVRQMPGKGLEWMGIIYPGDSDTRYSPSFQGQVTISTDKSNAYLQWSSLKASDTGMYYCARHPQPYGSGYYGEFDYWGQGTLVTVSS
VL: DIQMTQPPSVSGAPGQRVTISCTGSSSNIGAGYDVYWYQQFPGTAPKLLIYANDNRPSGVPDRFSGSKSGTSASLVITGLQAEDEADYYCQSYDSSLSGSVVFGGGTKLTVL
B1: binds.
